Measurements: IntAct's records for PubMed 29040270

B1: Rho-related GTP-binding protein RhoE (Homo sapiens), P61587 (parent)
chain: MKERRASQKLSSKSIMDPNQNVKCKIVVVGDSQCGKTALLHVFAKDCFPENYVPTVFENYTASFEIDTQRIELSLWDTSGSPYYDNVRPLSYPDSDAVLICFDISRPETLDSVLKKWKGEIQEFCPNTKMLLVGCKSDLRTDVSTLVELSNHRQTPVSYDQGANMAKQIGAATYIECSALQSENSVRDIFHVATLACVNKTNKNVKRNKSQRATKRISHMPSRPELSAVATDLRKDKAKSCTVM

Key:
[1] = variants of: B1; details: with plxb1_human PLXNB1, O43157
[2] = variants of: B1; details: with plxb2_human PLXNB2, O15031
Sequence of plxb2_human PLXNB2, O15031 (O15031 whole entry): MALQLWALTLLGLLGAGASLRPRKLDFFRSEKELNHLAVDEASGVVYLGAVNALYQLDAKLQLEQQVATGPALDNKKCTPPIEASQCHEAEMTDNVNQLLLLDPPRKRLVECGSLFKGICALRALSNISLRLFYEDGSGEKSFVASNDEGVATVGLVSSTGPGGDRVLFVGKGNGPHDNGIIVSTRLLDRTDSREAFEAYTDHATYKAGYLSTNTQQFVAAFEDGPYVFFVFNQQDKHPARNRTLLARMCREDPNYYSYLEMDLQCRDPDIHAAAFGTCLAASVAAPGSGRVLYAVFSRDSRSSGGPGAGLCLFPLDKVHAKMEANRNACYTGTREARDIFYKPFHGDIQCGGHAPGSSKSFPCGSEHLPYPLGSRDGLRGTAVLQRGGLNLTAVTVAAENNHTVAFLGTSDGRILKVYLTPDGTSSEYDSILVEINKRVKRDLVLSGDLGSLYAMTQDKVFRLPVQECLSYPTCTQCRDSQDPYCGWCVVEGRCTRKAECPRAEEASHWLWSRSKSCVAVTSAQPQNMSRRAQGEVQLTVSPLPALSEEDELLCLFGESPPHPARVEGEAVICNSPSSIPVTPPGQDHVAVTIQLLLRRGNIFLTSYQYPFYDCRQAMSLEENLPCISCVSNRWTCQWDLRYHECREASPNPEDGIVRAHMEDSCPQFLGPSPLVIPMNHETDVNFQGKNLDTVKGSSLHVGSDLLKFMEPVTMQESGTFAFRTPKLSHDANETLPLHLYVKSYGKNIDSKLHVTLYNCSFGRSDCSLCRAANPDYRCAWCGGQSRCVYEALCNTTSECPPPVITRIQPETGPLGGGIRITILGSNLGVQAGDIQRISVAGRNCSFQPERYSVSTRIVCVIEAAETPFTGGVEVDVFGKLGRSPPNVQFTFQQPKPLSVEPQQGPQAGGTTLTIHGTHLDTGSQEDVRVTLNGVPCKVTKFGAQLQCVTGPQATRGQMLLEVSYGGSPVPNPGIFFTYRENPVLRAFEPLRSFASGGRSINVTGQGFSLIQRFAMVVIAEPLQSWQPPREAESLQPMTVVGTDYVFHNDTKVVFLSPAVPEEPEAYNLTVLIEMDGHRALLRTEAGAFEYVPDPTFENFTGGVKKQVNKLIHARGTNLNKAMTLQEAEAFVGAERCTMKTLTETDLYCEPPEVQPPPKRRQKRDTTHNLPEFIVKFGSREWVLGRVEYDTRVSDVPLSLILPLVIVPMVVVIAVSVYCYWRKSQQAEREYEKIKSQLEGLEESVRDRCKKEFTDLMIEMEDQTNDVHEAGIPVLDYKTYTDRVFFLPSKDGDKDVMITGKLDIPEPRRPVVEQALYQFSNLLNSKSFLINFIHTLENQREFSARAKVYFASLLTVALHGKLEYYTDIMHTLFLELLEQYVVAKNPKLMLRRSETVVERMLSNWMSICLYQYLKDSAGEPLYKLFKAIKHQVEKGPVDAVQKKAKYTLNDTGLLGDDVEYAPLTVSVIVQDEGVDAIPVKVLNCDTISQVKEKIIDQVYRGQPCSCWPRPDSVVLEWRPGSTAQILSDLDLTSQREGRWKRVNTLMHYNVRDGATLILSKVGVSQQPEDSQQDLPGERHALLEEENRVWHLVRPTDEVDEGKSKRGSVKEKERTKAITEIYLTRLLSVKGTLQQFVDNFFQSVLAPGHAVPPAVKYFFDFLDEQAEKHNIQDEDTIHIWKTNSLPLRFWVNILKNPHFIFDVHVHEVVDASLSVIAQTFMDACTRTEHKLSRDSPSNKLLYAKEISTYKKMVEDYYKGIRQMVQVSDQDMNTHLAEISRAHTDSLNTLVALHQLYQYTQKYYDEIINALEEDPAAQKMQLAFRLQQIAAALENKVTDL

Sequence of plxb1_human PLXNB1, O43157 (O43157 whole entry): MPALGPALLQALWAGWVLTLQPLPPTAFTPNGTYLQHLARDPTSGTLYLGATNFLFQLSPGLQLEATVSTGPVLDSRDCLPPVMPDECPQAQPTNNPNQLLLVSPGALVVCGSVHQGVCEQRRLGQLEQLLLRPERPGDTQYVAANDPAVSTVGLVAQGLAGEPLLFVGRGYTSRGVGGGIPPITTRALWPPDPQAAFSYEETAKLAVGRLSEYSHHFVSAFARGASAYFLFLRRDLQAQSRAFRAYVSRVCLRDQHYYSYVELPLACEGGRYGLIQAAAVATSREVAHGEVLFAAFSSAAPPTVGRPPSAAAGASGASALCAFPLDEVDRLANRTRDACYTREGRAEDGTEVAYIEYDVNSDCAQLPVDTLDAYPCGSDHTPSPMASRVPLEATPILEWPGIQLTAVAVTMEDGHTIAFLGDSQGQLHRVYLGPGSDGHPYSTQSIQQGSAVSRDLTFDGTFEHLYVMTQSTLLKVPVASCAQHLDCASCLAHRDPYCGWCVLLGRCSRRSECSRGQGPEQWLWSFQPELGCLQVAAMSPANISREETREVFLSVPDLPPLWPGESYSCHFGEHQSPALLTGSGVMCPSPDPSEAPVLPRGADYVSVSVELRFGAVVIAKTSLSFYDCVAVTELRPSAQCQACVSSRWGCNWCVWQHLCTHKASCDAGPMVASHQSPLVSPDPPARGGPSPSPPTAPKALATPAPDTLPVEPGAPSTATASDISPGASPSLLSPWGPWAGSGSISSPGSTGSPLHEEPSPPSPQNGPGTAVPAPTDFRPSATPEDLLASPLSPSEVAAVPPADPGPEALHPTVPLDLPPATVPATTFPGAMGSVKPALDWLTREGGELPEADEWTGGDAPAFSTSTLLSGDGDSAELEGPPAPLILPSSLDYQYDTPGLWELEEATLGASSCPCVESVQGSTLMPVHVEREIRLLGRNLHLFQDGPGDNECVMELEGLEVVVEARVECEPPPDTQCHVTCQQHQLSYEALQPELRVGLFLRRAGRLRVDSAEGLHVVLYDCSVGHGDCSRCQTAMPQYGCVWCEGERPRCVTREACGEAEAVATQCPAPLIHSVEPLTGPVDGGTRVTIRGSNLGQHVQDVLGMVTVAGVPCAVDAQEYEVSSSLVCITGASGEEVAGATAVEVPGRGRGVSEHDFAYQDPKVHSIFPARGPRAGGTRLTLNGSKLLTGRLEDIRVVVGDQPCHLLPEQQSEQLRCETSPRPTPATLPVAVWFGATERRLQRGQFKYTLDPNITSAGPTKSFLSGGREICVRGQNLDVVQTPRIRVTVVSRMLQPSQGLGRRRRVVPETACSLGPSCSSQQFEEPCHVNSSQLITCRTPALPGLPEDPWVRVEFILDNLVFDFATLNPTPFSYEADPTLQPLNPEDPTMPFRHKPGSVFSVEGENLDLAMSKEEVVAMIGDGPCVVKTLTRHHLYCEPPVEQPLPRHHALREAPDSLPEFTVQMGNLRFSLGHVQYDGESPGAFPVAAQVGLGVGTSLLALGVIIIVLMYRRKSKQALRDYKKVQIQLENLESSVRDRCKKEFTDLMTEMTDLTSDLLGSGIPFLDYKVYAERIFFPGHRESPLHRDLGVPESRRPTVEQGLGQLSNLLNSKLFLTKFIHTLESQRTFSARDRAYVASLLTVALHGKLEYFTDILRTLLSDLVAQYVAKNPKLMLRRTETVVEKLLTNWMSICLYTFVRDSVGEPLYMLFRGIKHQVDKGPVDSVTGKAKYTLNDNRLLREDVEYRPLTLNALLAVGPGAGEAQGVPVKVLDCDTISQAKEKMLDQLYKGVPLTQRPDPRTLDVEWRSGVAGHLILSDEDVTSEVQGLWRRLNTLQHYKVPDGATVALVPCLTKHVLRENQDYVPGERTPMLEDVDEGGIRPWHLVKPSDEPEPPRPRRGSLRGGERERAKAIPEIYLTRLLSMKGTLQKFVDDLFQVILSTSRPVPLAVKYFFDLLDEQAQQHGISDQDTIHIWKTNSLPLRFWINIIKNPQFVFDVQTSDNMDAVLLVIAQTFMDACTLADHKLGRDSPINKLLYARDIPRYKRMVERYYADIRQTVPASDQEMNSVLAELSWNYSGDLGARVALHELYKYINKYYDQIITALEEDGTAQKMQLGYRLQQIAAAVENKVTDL

Row | Variant | effect of a mutation on the interaction [1] | effect of a mutation on the interaction [2]
1 | MKERRASQKLSSKSIMDPNQNVKCKIVVVGDSQCGKTALLHVFAKDCFPENYVPTVFENYTASFEIDTQRIELSLWDTSGSPYYDRVRPLSYPDSDAVLICFDISRPETLDSVLKKWKGEIQEFCPNTKMLLVGCKSDLRTDVSTLVELSNHRQTPVSYDQGANMAKQIGAATYIECSALQSENSVRDIFHVATLACVNKTNKNVKRNKSQRATKRISHMPSRPELSAVATDLRKDKAKSCTVM [N86R] | with no effect | with no effect
2 | MKERRASQKLSSKSIMDPNQNVKCKIVVVGDSQCGKTALLHVFAKDCFPENYVPTVFENYTASFEIDTQRIELSLWDTSGSPYYDNVRPLSYPDSDAVLICFDISRPETLDSVLKKWKGEIQEYCPNTKMLLVGCKSDLRTDVSTLVELSNHRQTPVSYDQGANMAKQIGAATYIECSALQSENSVRDIFHVATLACVNKTNKNVKRNKSQRATKRISHMPSRPELSAVATDLRKDKAKSCTVM [F124Y] | with no effect | with no effect

More lines, now with the values ahead:

Row | effect of a mutation on the interaction [1] | effect of a mutation on the interaction [2] | Variant
3 | with no effect | with no effect | MKERRASQKLSSKSIMDPNQNVKCKIVVVGDSQCGKTALLHVFAKDCFPENYVPTVFENATASFEIDTQRIELSLWDTSGSPYYDNVRPLSYPDSDAVLICFDISRPETLDSVLKKWKGEIQEFCPNTKMLLVGCKSDLRTDVSTLVELSNHRQTPVSYDQGANMAKQIGAATYIECSALQSENSVRDIFHVATLACVNKTNKNVKRNKSQRATKRISHMPSRPELSAVATDLRKDKAKSCTVM [Y60A]
4 | disrupting interaction strength | disrupting interaction strength | MKERRASQKLSSKSIMDPNQNVKCKIVVVGDSQCGKTALLHVFAKDCFPENYVPTVFENYTASFEIDTQRIELSLWDTSGSPYYDNRRPLSYPDSDAVLICFDISRPETLDSVLKKWKGEIQEFCPNTKMLLVGCKSDLRTDVSTLVELSNHRQTPVSYDQGANMAKQIGAATYIECSALQSENSVRDIFHVATLACVNKTNKNVKRNKSQRATKRISHMPSRPELSAVATDLRKDKAKSCTVM [V87R]
5 | disrupting interaction strength | disrupting interaction strength | MKERRASQKLSSKSIMDPNQNVKCKIVVVGDSQCGKTALLHVFAKDCFPENYVPTVFENYTASFEIDTQRIELSLWDTSGSPYYDNVRPRSYPDSDAVLICFDISRPETLDSVLKKWKGEIQEFCPNTKMLLVGCKSDLRTDVSTLVELSNHRQTPVSYDQGANMAKQIGAATYIECSALQSENSVRDIFHVATLACVNKTNKNVKRNKSQRATKRISHMPSRPELSAVATDLRKDKAKSCTVM [L90R]
